Where a chain is given by its changes, count along the chain named.
B1: 5E11-TCB (bispecific antibody, human IgG1, kappa, L234A L235A)
light 1: DIVLTQSPALAVSPGQRATISCRASQSVSISGINLMNWYQQKPGQQPKLLIYHASILASGIPTRFSGSGSGTDFTLTIDPVQADDIATYYCQQTRESPLTFGSGTNLEIKRTVAAPSVFIFPPSDRKLKSGTASVVCLLNNFYPREAKVQWKVDNALQSGNSQESVTEQDSKDSTYSLSSTLTLSKADYEKHKVYACEVTHQGLSSPVTKSFNRGEC
light 2: EVQLLESGGGLVQPGGSLRLSCAASGFTFSTYAMNWVRQAPGKGLEWVSRIRSKYNNYATYYADSVKGRFTISRDDSKNTLYLQMNSLRAEDTAVYYCVRHGNFGNSYVSWFAYWGQGTLVTVSSASVAAPSVFIFPPSDEQLKSGTASVVCLLNNFYPREAKVQWKVDNALQSGNSQESVTEQDSKDSTYSLSSTLTLSKADYEKHKVYACEVTHQGLSSPVTKSFNRGEC
heavy 1: ELQLEQSGGGLVQPGGSLTLSCAASGFTFSKYAMAWVRQAPTKGLEWVASISTGGVNTYYRDSVKARFTISRDNAKNTQYLQMDSLRSEDTATYYCATHTGDYFDYWGQGVMVTVSSASTKGPSVFPLAPSSKSTSGGTAALGCLVEDYFPEPVTVSWNSGALTSGVHTFPAVLQSSGLYSLSSVVTVPSSSLGTQTYICNVNHKPSNTKVDEKVEPKSCDKTHTCPPCPAPEAAGGPSVFLFPPKPKDTLMISRTPEVTCVVVDVSHEDPEVKFNWYVDGVEVHNAKTKPREEQYNSTYRVVSVLTVLHQDWLNGKEYKCKVSNKALGAPIEKTISKAKGQPREPQVCTLPPSRDELTKNQVSLSCAVKGFYPSDIAVEWESNGQPENNYKTTPPVLDSDGSFFLVSKLTVDKSRWQQGNVFSCSVMHEALHNHYTQKSLSLSPGK
heavy 2: not shown
notes: 2+1 anti-GPRC5D/anti-CD3 T cell bispecific: LC1 (GPRC5D), LC2 (CD3 crossed VH-CL), HC hole, HC knob; also called 5E11p-CH2527
B2: 5F11(VH1b + VL2a)-C122-TCB (P1AE6623) (bispecific antibody, human IgG1, kappa, L234A L235A)
light 1: DIVMTQSPLSLPVTPGEPASISCRSSKSLLHSNGITYVYWYLQKPGQSPQLLIYRMSNRASGVPDRFSGSGSGTDFTLKISRVEAEDVGVYHCGQLLENPYTFGQGTKLEIKRTVAAPSVFIFPPSDRKLKSGTASVVCLLNNFYPREAKVQWKVDNALQSGNSQESVTEQDSKDSTYSLSSTLTLSKADYEKHKVYACEVTHQGLSSPVTKSFNRGEC
light 2: B1 light 2 with T28Q, T31S, G102T, N103T, G105P, N106S, W111Y, F112Y, A113G
heavy 1: EVQLVESGGGVVQPGRSLRLSCAASGFSFSNYGMAWVRQAPGKGLEWVASISTGGGNTYYRDSVKGRFTISRDNAKNTLYLQMNSLRAEDTAVYYCTRHDRGGLYWGQGTMVTVSSASTKGPSVFPLAPSSKSTSGGTAALGCLVEDYFPEPVTVSWNSGALTSGVHTFPAVLQSSGLYSLSSVVTVPSSSLGTQTYICNVNHKPSNTKVDEKVEPKSCDKTHTCPPCPAPEAAGGPSVFLFPPKPKDTLMISRTPEVTCVVVDVSHEDPEVKFNWYVDGVEVHNAKTKPREEQYNSTYRVVSVLTVLHQDWLNGKEYKCKVSNKALGAPIEKTISKAKGQPREPQVCTLPPSRDELTKNQVSLSCAVKGFYPSDIAVEWESNGQPENNYKTTPPVLDSDGSFFLVSKLTVDKSRWQQGNVFSCSVMHEALHNHYTQKSLSLSPGK
heavy 2: not shown
notes: 2+1 TCB: LC1 (anti-GPRC5D), LC2 (anti-CD3 crossed), HC1 Fc hole, HC2 Fc knob
B3: B72-TCB (bispecific antibody, human IgG1, kappa, L234A L235A)
heavy 1: not shown
light 1: B1 light 2 with L5V, S30N, S49A, D64A, T80S, R89K, A90T, V99A
heavy 2: QVQLVQSGAEVKKPGASVKVSCKASGYSFTGYTMNWVRQAPGQGLEWMGLINPYNSDTNYAQKLQGRVTMTTDTSTSTAYMELRSLRSDDTAVYYCARVALRVALDYWGQGTLVTVSSASTKGPSVFPLAPSSKSTSGGTAALGCLVEDYFPEPVTVSWNSGALTSGVHTFPAVLQSSGLYSLSSVVTVPSSSLGTQTYICNVNHKPSNTKVDEKVEPKSCDKTHTCPPCPAPEAAGGPSVFLFPPKPKDTLMISRTPEVTCVVVDVSHEDPEVKFNWYVDGVEVHNAKTKPREEQYNSTYRVVSVLTVLHQDWLNGKEYKCKVSNKALGAPIEKTISKAKGQPREPQVCTLPPSRDELTKNQVSLSCAVKGFYPSDIAVEWESNGQPENNYKTTPPVLDSDGSFFLVSKLTVDKSRWQQGNVFSCSVMHEALHNHYTQKSLSLSPGK
light 2: DIQMTQSPSSLSASVGDRVTITCKASQNVATHVGWYQQKPGKAPKRLIYSASYRYSGVPSRFSGSGSGTEFTLTISNLQPEDFATYYCQQYNRYPYTFGQGTKLEIKRTVAAPSVFIFPPSDRKLKSGTASVVCLLNNFYPREAKVQWKVDNALQSGNSQESVTEQDSKDSTYSLSSTLTLSKADYEKHKVYACEVTHQGLSSPVTKSFNRGEC
B4: 5E11(VH1d + VL2a)-C122-TCB (P1AE6626) (bispecific antibody, human IgG1, kappa, L234A L235A)
light 1: EIVLTQSPGTLSLSPGERATLSCRASQSVSISGINLMNWYQQKPGQQPRLLIYHASILASGIPDRFSGSGSGTDFTLTISRLEPEDFAVYYCQQTRESPLTFGQGTRLEIKRTVAAPSVFIFPPSDRKLKSGTASVVCLLNNFYPREAKVQWKVDNALQSGNSQESVTEQDSKDSTYSLSSTLTLSKADYEKHKVYACEVTHQGLSSPVTKSFNRGEC
light 2: B1 light 2 with T28Q, T31S, G102T, N103T, G105P, N106S, W111Y, F112Y, A113G
heavy 1: ELQLLESGGGLVQPGGSLRLSCAASGFTFSKYAMAWVRQAPGKGLEWVASISTGGVNTYYADSVKGRFTISRDNAKNTLYLQMNSLRAEDTAVYYCATHTGDYFDYWGQGTMVTVSSASTKGPSVFPLAPSSKSTSGGTAALGCLVEDYFPEPVTVSWNSGALTSGVHTFPAVLQSSGLYSLSSVVTVPSSSLGTQTYICNVNHKPSNTKVDEKVEPKSCDKTHTCPPCPAPEAAGGPSVFLFPPKPKDTLMISRTPEVTCVVVDVSHEDPEVKFNWYVDGVEVHNAKTKPREEQYNSTYRVVSVLTVLHQDWLNGKEYKCKVSNKALGAPIEKTISKAKGQPREPQVCTLPPSRDELTKNQVSLSCAVKGFYPSDIAVEWESNGQPENNYKTTPPVLDSDGSFFLVSKLTVDKSRWQQGNVFSCSVMHEALHNHYTQKSLSLSPGK
heavy 2: not shown
notes: as for B2

Columns and labels:
human GPRC5D [1] = target: T1, human GPRC5D (human, UniProt Q9NZD1 1-345); experiment: cell-based or functional assay
T1 sequence (Q9NZD1 whole entry): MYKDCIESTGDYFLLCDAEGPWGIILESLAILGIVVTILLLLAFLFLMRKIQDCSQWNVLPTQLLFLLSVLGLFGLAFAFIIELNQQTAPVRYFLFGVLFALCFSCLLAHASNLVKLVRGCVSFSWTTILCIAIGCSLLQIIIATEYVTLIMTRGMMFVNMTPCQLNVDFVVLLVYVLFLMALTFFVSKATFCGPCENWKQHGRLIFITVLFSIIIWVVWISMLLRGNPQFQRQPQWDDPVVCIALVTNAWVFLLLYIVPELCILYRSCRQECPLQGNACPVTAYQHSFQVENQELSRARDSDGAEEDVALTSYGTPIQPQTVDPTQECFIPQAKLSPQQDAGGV

human GPRC5D [2] = target: T1, human GPRC5D; experiment: cell-based or functional assay; remark: listed apart in the source
human GPRC5D [3] = target: T1, human GPRC5D; experiment: flow cytometry on NCI-H929 cells; paragraph 550 says these values were falsely calculated by a factor of 10 (too low)
Method: (§1) To measure the binding to GPRC5D, we performed a flow cytometry-based binding assay on reported multiple myeloma cell lines (Lombardi et al., Molecular characterization of human multiple myeloma cell lines by integrative genomics: insights into the biology of the disease; Genes Chromosomes Cancer. 2007 March; 46(3):226-38). The cell line NCI-H929 (ATCC® CRL-9068) was cultured in RPMI 1640 with Glutamax medium (Gibco) supplemented with 10% FBS, 1× Penicillin/Streptomycin (Gibco), 1× Sodium Pyruvate (Gibco) and 50 μM beta-Mercaptoethanol (Gibco). Jurkat-NFAT reporter cells (a CD3-expressing human acute lymphatic leukemia reporter cell line with a NFAT promoter, GloResponse Jurkat NFAT-RE-luc2P, Promega #CS176501) were cultured in RPMI 1640, containing 2 g/l Glucose, 2 g/l NaHCO₃, 10% FCS, 25 mM HEPES, 2 mM L-Glutamine, 1×NEAA, 1× Sodium-pyruvate and 200 μg/ml Hygromycin B.
(§2) Flow cytometry acquisition was performed on a custom-designed BD Biosciences Fortessa and analyzed using BD Diva. EC50 values were calculated, using GraphPad Prism software.

human CD3 = target: T2, human CD3 (human, UniProt P07766 23-207); experiment: flow cytometry on Jurkat-NFAT cells; paragraph 550 says these values were falsely calculated by a factor of 10 (too low)
T2 construct: Expressed on Jurkat-NFAT reporter cells as part of the TCR/CD3 complex; also called hCD3; CD3 epsilon
T2 sequence (P07766 23-207 limits assumed): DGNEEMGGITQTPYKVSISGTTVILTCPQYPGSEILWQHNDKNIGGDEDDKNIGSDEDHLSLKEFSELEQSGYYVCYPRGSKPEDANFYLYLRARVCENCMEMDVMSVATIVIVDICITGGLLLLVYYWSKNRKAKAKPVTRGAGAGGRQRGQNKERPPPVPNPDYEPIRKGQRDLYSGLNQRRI
Method: as §1, §2

human GPRC5D [4] = target: T1, human GPRC5D; experiment: cell-based or functional assay; remark: listed apart in the source
human GPRC5D [5] = target: T1, human GPRC5D; experiment: cell-based or functional assay; remark: listed apart in the source
human GPRC5D [6] = target: T1, human GPRC5D; experiment: cell-based or functional assay; remark: listed apart in the source

| Binder | AUC, activation of Jurkat-NFAT reporter cells in presence of RPMI-8226 cells (human GPRC5D [1]) | EC50 (pM), activation of Jurkat-NFAT reporter cells in presence of RPMI-8226 cells (human GPRC5D [1]) | EC50 (human GPRC5D [3]) | EC50 (human CD3) | EC50 in vitro killing assay, AMO-1 (human GPRC5D [4]) | EC50 in vitro killing assay, EJM (human GPRC5D [4]) | EC50 in vitro killing assay, L363 (human GPRC5D [4]) | EC50 in vitro killing assay, MOLP-2 (human GPRC5D [4]) | EC50 in vitro killing assay, NCI-H929 (human GPRC5D [4]) | EC50 in vitro killing assay, OPM-2 (human GPRC5D [4]) | EC50 in vitro killing assay, RPMI (human GPRC5D [4]) | also measured |
| --- | --- | --- | --- | --- | --- | --- | --- | --- | --- | --- | --- | --- |
| B1 | 265000 | 157 pM | 3360 pM | 3670 pM | 8 pM | 11 pM | 17 pM | 18 pM | 7 pM | 2 pM | 64 pM | EC50 of anti-GPRC5D-TCB mediated killing, AMO-1 (human GPRC5D [2]): 14 pM; EC50 of anti-GPRC5D-TCB mediated killing, L363 (human GPRC5D [2]): 12 pM; EC50 of anti-GPRC5D-TCB mediated killing, NCI-H929 (human GPRC5D [2]): 7 pM; EC50 of anti-GPRC5D-TCB mediated killing, RPMI-8226 (human GPRC5D [2]): 24 pM |
| B2 | 778000 | 8.9 pM | 360 pM | – | – | – | – | – | – | – | – | – |
| B3 | – | – | – | – | 109 pM | 60 pM | 58 pM | 124 pM | 58 pM | 171 pM | 193 pM | EC50 (pM), TCB-mediated tumor cell lysis, AMO-1 (human GPRC5D [5]): 79.9 pM; EC50 (pM), TCB-mediated tumor cell lysis, IM-9 (human GPRC5D [5]): 198 pM; EC50 (pM), TCB-mediated tumor cell lysis, LP-1 (human GPRC5D [5]): 49 pM; EC50 (pM), TCB-mediated tumor cell lysis, NCI-H929 (human GPRC5D [5]): 26.9 pM; AUC, TCB-mediated tumor cell lysis, AMO-1 (human GPRC5D [6]): 5.45e+07; AUC, TCB-mediated tumor cell lysis, IM-9 (human GPRC5D [6]): 8.6e+06; AUC, TCB-mediated tumor cell lysis, LP-1 (human GPRC5D [6]): 1.15e+07; AUC, TCB-mediated tumor cell lysis, NCI-H929 (human GPRC5D [6]): 1.09e+07 |
| B4 | 582000 | 49.7 pM | 850 pM | 7800 pM | – | – | – | – | – | – | – | – |

Reference: patent US20220259318A1 (Hoffmann-La Roche, published 2022)
